We go through 76 sequences from the supplement of paper PMC7877785.

The nature of this data set: self-splicing fitness, log relative to wild type (ln ratio); higher = more splicing; Tetrahymena group I intron in knt gene, E. coli kanamycin selection, DiMSum; sequences stand for … in CUCUCU…GGAGGGAAAAGUUAUCAGGCAUGCACCUGGUAGCUAGUCUUUAAACCAAUAGAUUGCAUCGGUUUAAAAGGCAAGACCGUCAAAUUGCGGGAAAGGGGUCAACAGCCGUUCAGUACCAAGUCUCAGGGGAAACUUUGAGAUGGCCUUGCAAAGGGUAUGGUAAUAAGCUGACGGACAUGGUCCUAACCACGCAGCCAAGUCCUAAGUCAACAGAUCUUCUGUUGAUAUGGAUGCAGUUCACAGACUAAAUGUCGGUCGGGGAAGAUGUAUUCUUCUCAUAAGAUAUAGUCGGACCUCUCCUUAAUGGGAGCUAGCGGAUGAAGUGAUGCAACACUGGAGCCGCUGGGAACUAAUUUGUAUGCGAAAGUAUAUUGAUUAGUUUUGGAGUACUCGUGGUCG
The gist of the method: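 Fitness was computed with DiMSum as the error-weighted combination of replicate fold changes, kanamycin versus none, each normalised to wild type. The library randomised all eight intron nucleotides of the P1ex region, with the intron placed in the knt kanamycin-resistance gene on pET-22b(+) in E. coli BL21(DE3). Six replicate transformations were grown overnight at 37°C or 30°C on LB agar with or without 25 μg/mL kanamycin, plus 100 μg/mL carbenicillin, 50 μM IPTG and 0.2% rhamnose. Pooled colonies were amplicon-sequenced on an Illumina HiSeq 2500.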

± gives the uncertainty stated by the source.

For UGUGAGCAAUAUUACGUUGC, the “self-splicing fitness (ln)” value (37 °C) is -1.57 ± 0.37.
For the sequence UGUUAGCAAUAUUACGAACA, the “self-splicing fitness (ln)” value (30 °C) is -1.08 ± 0.2 and the “self-splicing fitness (ln)” value (37 °C) was -1.15 ± 0.32.
In the same order, the values of UGUUAGCAAUAUUACGAAGU are -3.08 ± 0.13 and -2.76 ± 0.19.
Regarding UGUUAGCAAUAUUACGAAUC, under “30 °C”, the “self-splicing fitness (ln)” value is -2.97 ± 0.48.
With UGUUAGCAAUAUUACGACCU, the “self-splicing fitness (ln)” value reads like this: (30 °C) -0.58 ± 0.16; (37 °C) 0.317 ± 0.2.
In the case of UGUUAGCAAUAUUACGAGGA, the “self-splicing fitness (ln)” value (37 °C) was -1.92 ± 0.21.
On to UGUUAGCAAUAUUACGAGUA, for which the “self-splicing fitness (ln)” value (30 °C) is -1.32 ± 0.13 and the “self-splicing fitness (ln)” value (37 °C) was -0.347 ± 0.13.
In the same order, the values of UGUUAGCAAUAUUACGAUAA are -0.767 ± 0.17 and -0.345 ± 0.16.
For the sequence UGUUAGCAAUAUUACGAUCU, the “self-splicing fitness (ln)” value was -0.736 ± 0.088 (30 °C) and -0.148 ± 0.12 (37 °C).
In the same order, the values of UGUUAGCAAUAUUACGCCGA are -1.18 ± 0.17 and -1.21 ± 0.15.
Turning to UGUUAGCAAUAUUACGCUCG, the “self-splicing fitness (ln)” value by setting is: (30 °C) -0.015 ± 0.18; (37 °C) -0.0235 ± 0.21.
In the same order, the values of UGUUAGCAAUAUUACGGAUC are -2.29 ± 0.35 and -1.81 ± 0.27.
In the same order, the values of UGUUAGCAAUAUUACGGCGU are -0.742 ± 0.1 and -0.892 ± 0.14.
In the same order, the values of UGUUAGCAAUAUUACGGUCG are -0.217 ± 0.15 and 0.99 ± 0.18.
Regarding UGUUAGCAAUAUUACGGUUC, the “self-splicing fitness (ln)” value runs as follows: (30 °C) -1.02 ± 0.24; (37 °C) -1.25 ± 0.48.
For UGUUAGCAAUAUUACGUACA, the “self-splicing fitness (ln)” value (30 °C) is -0.999 ± 0.11 and the “self-splicing fitness (ln)” value (37 °C) stood at 0.16 ± 0.13.
As for UGUUAGCAAUAUUACGUAGA, the “self-splicing fitness (ln)” value was -2.29 ± 0.12 (30 °C) and -0.809 ± 0.14 (37 °C).
In the same order, the values of UGUUAGCAAUAUUACGUAGU are -3.48 ± 0.33 and -2.22 ± 0.27.
In the same order, the values of UGUUAGCAAUAUUACGUCAU are -2.42 ± 0.3 and -1.35 ± 0.24.
Consider UGUUAGCAAUAUUACGUUAU, for which the “self-splicing fitness (ln)” value runs as follows: (30 °C) -2.78 ± 0.16; (37 °C) -2.67 ± 0.19.
In the case of UGUUAGCAAUAUUACGUUCU, the “self-splicing fitness (ln)” value (30 °C) was -1.29 ± 0.14 and the “self-splicing fitness (ln)” value (37 °C) is -0.157 ± 0.16.
In the same order, the values of UUAAAGCAAUAUUACGAAAA are -0.945 ± 0.057 and -0.761 ± 0.08.
In the same order, the values of UUAAAGCAAUAUUACGAACA are -0.0579 ± 0.13 and 0.708 ± 0.18.
In the same order, the values of UUAAAGCAAUAUUACGAACG are 0.275 ± 0.12 and 0.794 ± 0.16.
Regarding UUAAAGCAAUAUUACGAACU, the “self-splicing fitness (ln)” value (30 °C) is -0.567 ± 0.11 and the “self-splicing fitness (ln)” value (37 °C) was -0.0402 ± 0.12.
In the case of UUAAAGCAAUAUUACGACUC, the “self-splicing fitness (ln)” value was -0.15 ± 0.12 (30 °C) and -0.0274 ± 0.15 (37 °C).
In the same order, the values of UUAAAGCAAUAUUACGAGAG are -0.988 ± 0.061 and -0.259 ± 0.11.
UUAAAGCAAUAUUACGCCGG: the “self-splicing fitness (ln)” value was -0.245 ± 0.12 (30 °C) and 0.421 ± 0.18 (37 °C).
In the same order, the values of UUAAAGCAAUAUUACGCGCU are -0.179 ± 0.1 and -0.107 ± 0.11.
UUAAAGCAAUAUUACGCGGA: the “self-splicing fitness (ln)” value is -0.811 ± 0.097 (30 °C) and 0.458 ± 0.1 (37 °C).
In the same order, the values of UUAAAGCAAUAUUACGCGGG are -0.482 ± 0.11 and -1.29 ± 0.13.
In the same order, the values of UUAAAGCAAUAUUACGCGUA are -0.515 ± 0.12 and 0.118 ± 0.14.
As to UUAAAGCAAUAUUACGCUCG, the “self-splicing fitness (ln)” value runs as follows: (30 °C) 0.194 ± 0.12; (37 °C) 0.654 ± 0.15.
For the sequence UUAAAGCAAUAUUACGGCCG, the “self-splicing fitness (ln)” value (30 °C) came to 0.199 ± 0.14 and the “self-splicing fitness (ln)” value (37 °C) is 0.0811 ± 0.16.
UUAAAGCAAUAUUACGGGUA: the “self-splicing fitness (ln)” value was -0.431 ± 0.069 (30 °C) and 0.283 ± 0.08 (37 °C).
In the case of UUAAAGCAAUAUUACGGUAC, the “self-splicing fitness (ln)” value is, setting by setting: (30 °C) -2.58 ± 0.22; (37 °C) -1.06 ± 0.22.
In the same order, the values of UUAAAGCAAUAUUACGUUAA are -0.426 ± 0.071 and 0.14 ± 0.091.
In the same order, the values of UUACAGCAAUAUUACGAAUG are -1.46 ± 0.094 and -0.991 ± 0.14.
In the same order, the values of UUACAGCAAUAUUACGCAAU are -1.23 ± 0.15 and -2.23 ± 0.4.
With UUACAGCAAUAUUACGCACC, the “self-splicing fitness (ln)” value by setting is: (30 °C) -2.69 ± 0.21; (37 °C) -0.981 ± 0.23.
In the same order, the values of UUACAGCAAUAUUACGCACG are -1.13 ± 0.12 and 0.579 ± 0.13.
In the case of UUACAGCAAUAUUACGCCAU, the “self-splicing fitness (ln)” value was -2.91 ± 0.25 (30 °C) and -2.48 ± 0.27 (37 °C).
In the same order, the values of UUACAGCAAUAUUACGCCUC are -3.31 ± 0.38 and -2.03 ± 0.38.
In the same order, the values of UUACAGCAAUAUUACGCGCC are -2.36 ± 0.14 and -0.896 ± 0.2.
In the same order, the values of UUACAGCAAUAUUACGCUAU are -3.74 ± 0.25 and -2.33 ± 0.21.
For UUACAGCAAUAUUACGGAAC, the “self-splicing fitness (ln)” value (30 °C) is -2.88 ± 0.26 and the “self-splicing fitness (ln)” value (37 °C) was -1.88 ± 0.42.
In the same order, the values of UUACAGCAAUAUUACGGACA are -1.02 ± 0.11 and -0.885 ± 0.13.
Consider UUACAGCAAUAUUACGGAUA, for which the “self-splicing fitness (ln)” value is -2.25 ± 0.21 (30 °C) and -0.725 ± 0.12 (37 °C).
In the same order, the values of UUACAGCAAUAUUACGGAUC are -4.12 ± 0.34 and -2.26 ± 0.2.
In the same order, the values of UUACAGCAAUAUUACGGCCA are -1.02 ± 0.12 and 0.128 ± 0.13.
UUACAGCAAUAUUACGGCGC: the “self-splicing fitness (ln)” value was -2.88 ± 0.18 (30 °C) and -0.508 ± 0.13 (37 °C).
In the same order, the values of UUACAGCAAUAUUACGUCGA are -0.899 ± 0.087 and 0.0863 ± 0.093.
In the same order, the values of UUACAGCAAUAUUACGUGAA are -1.16 ± 0.054 and -0.338 ± 0.066.
Consider UUAGAGCAAUAUUACGACUG, for which the “self-splicing fitness (ln)” value by setting is: (30 °C) -1.13 ± 0.096; (37 °C) 0.345 ± 0.14.
In the same order, the values of UUAGAGCAAUAUUACGACUU are -1.32 ± 0.13 and -1.77 ± 0.19.
Regarding UUAGAGCAAUAUUACGAGCA, the “self-splicing fitness (ln)” value is -2.27 ± 0.42 (30 °C) and -1.09 ± 0.32 (37 °C).
As for UUAGAGCAAUAUUACGAGUC, the “self-splicing fitness (ln)” value (37 °C) is -2.53 ± 0.49.
With UUAGAGCAAUAUUACGAUAG, the “self-splicing fitness (ln)” value reads like this: (30 °C) -0.594 ± 0.1; (37 °C) -0.147 ± 0.14.
In the same order, the values of UUAGAGCAAUAUUACGCAUG are -1.12 ± 0.11 and -0.298 ± 0.12.
In the same order, the values of UUAGAGCAAUAUUACGCGCA are -0.808 ± 0.12 and -0.112 ± 0.16.
On to UUAGAGCAAUAUUACGCUAC, for which the “self-splicing fitness (ln)” value (30 °C) was -2.9 ± 0.41.
Consider UUAGAGCAAUAUUACGCUGU, for which the “self-splicing fitness (ln)” value reads like this: (30 °C) -3.47 ± 0.36; (37 °C) -1.56 ± 0.21.
In the same order, the values of UUAGAGCAAUAUUACGGUAC are -3.85 ± 0.26 and -2.79 ± 0.4.
Turning to UUAGAGCAAUAUUACGGUGU, the “self-splicing fitness (ln)” value (30 °C) is -2.05 ± 0.35 and the “self-splicing fitness (ln)” value (37 °C) was -2.19 ± 0.3.
In the same order, the values of UUAGAGCAAUAUUACGUACU are -3.2 ± 0.34 and -1.81 ± 0.31.
In the same order, the values of UUAGAGCAAUAUUACGUAUA are -3.64 ± 0.43 and -0.846 ± 0.27.
In the same order, the values of UUAGAGCAAUAUUACGUCGC are -3.05 ± 0.47 and -1.76 ± 0.37.
Regarding UUAGAGCAAUAUUACGUGAU, the “self-splicing fitness (ln)” value is, setting by setting: (30 °C) -3.95 ± 0.28; (37 °C) -2.52 ± 0.22.
Take UUAGAGCAAUAUUACGUGGA: the “self-splicing fitness (ln)” value is, setting by setting: (30 °C) -2.18 ± 0.13; (37 °C) -1.6 ± 0.12.
In the same order, the values of UUAGAGCAAUAUUACGUUGC are -2.58 ± 0.22 and -1.25 ± 0.33.
In the case of UUAUAGCAAUAUUACGAAUU, the “self-splicing fitness (ln)” value (30 °C) was -3.24 ± 0.33 and the “self-splicing fitness (ln)” value (37 °C) was -0.681 ± 0.25.
Consider UUAUAGCAAUAUUACGACAG, for which the “self-splicing fitness (ln)” value reads like this: (30 °C) -1.09 ± 0.16; (37 °C) -0.548 ± 0.21.
In the same order, the values of UUAUAGCAAUAUUACGAGCA are -2.02 ± 0.17 and -1.49 ± 0.17.
In the same order, the values of UUAUAGCAAUAUUACGAGCG are -0.835 ± 0.28 and -0.754 ± 0.29.
In the same order, the values of UUAUAGCAAUAUUACGAUCU are -1.74 ± 0.32 and -1.17 ± 0.25.
Regarding UUAUAGCAAUAUUACGCCAG, the “self-splicing fitness (ln)” value by setting is: (30 °C) -1.64 ± 0.25; (37 °C) -0.566 ± 0.27.
